B1: AFEST (Archaeoglobus fulgidus DSM 4304) (protein)
chain: MLDMPIDPVYYQLAEYFDSLPKFDQFSSAREYREAINRIYEERNRQLSQHERVERVEDRTIKGRNGDIRVRVYQQKPDSPVLVYYHGGGFVICSIESHDALCRRIARLSNSTVVSVDYRLAPEHKFPAAVYDCYDATKWVAENAEELRIDPSKIFVGGDSAGGNLAAAVSIMARDSGEDFIKHQILIYPVVNFVAPTPSLLEFGEGLWILDQKIMSWFSEQYFSREEDKFNPLASVIFADLENLPPALIITAEYDPLRDEGEVFGQMLRRAGVEASIVRYRGVLHGFINYYPVLKAARDAINQIAALLVFD
notes: pET-28a(+) in E. coli BL21-CodonPlus(DE3), Ni-NTA purified; 5' primer starts … (MLDMPI)
B2: AFEST (Archaeoglobus fulgidus DSM 4304; V293E) (protein)
chain: B1 chain with V293E
notes: as for B1
B3: AFEST (Archaeoglobus fulgidus DSM 4304; F287Y/S94G) (protein)
chain: B1 chain with S94G, F287Y
notes: as for B1
B4: AFEST (Archaeoglobus fulgidus DSM 4304; V293G) (protein)
chain: B1 chain with V293G
notes: as for B1

Residue numbers refer to the chain shown, from its start. Names and notes keep the numbering of the source.

Substrate in one series: CCCC(=O)Oc1ccc2c(c1)Oc1cc(OC(=O)CCC)ccc1C21OC(=O)c2ccccc21
Put plainly: cells, lysate or membranes. Format: cell-based, Archaeoglobus fulgidus. To be noted: bulk reaction; enzyme preparation not told in main text (AFEST displayed on E. coli in the parallel droplet assay).
As to B1, the Michaelis constant (Km) is listed as 240 µM.

Substrate in the next series: CCCC(=O)Oc1ccc([N+](=O)[O-])cc1
Put plainly: hydrolysis kinetics. The series is classed as biochemical, Archaeoglobus fulgidus. To be noted: 37°C. The text has this:
hydrolysis kinetics on AFEST
As for B1, the Km is on record as 22.47 µM, the kcat was 135 s⁻¹ and the kcat/Km turned out to be 6.03e+06 M⁻¹ s⁻¹.

With B2, the Km is 12.13 µM, the kcat was found to be 138 s⁻¹ and the kcat/Km turned out to be 1.14e+07 M⁻¹ s⁻¹.

For B3, the Km is 15.42 µM, the turnover number (kcat) turned out to be 155 s⁻¹ and the specificity constant (kcat/Km) was 1e+07 M⁻¹ s⁻¹.

Take B4: the Km came to 9.74 µM, the kcat was 118 s⁻¹ and the kcat/Km amounted to 1.21e+07 M⁻¹ s⁻¹.

Source of the values: article PMC3933655, “An Improved Single Cell Ultrahigh Throughput Screening Method Based on In Vitro Compartmentalization” (PLoS ONE, 2014).
